{"source": "paper PMC9795039", "about": "“Kindlin2 enables EphB/ephrinB bi-directional signaling to support vascular development” (Life Science Alliance, 2022)", "parents": {"B1": {"name": "his-tagged human full-length kindlin2 [human] / his/Avi-tagged cytoplasmic tail of ephrinB2 WT [modified: biotinylated; biotinylated] [not stated] (parent complex)", "chain 1": "MALDGIRMPDGCYADGTWELSVHVTDLNRDVTLRVTGEVHIGGVMLKLVEKLDVKKDWSDHALWWEKKRTWLLKTHWTLDKYGIQADAKLQFTPQHKLLRLQLPNMKYVKVKVNFSDRVFKAVSDICKTFNIRHPEELSLLKKPRDPTKKKKKKLDDQSEDEALELEGPLITPGSGSIYSSPGLYSKTMTPTYDAHDGSPLSPTSAWFGDSALSEGNPGILAVSQPITSPEILAKMFKPQALLDKAKINQGWLDSSRSLMEQDVKENEALLLRFKYYSFFDLNPKYDAIRINQLYEQAKWAILLEEIECTEEEMMMFAALQYHINKLSIMTSENHLNNSDKEVDEVDAALSDLEITLEGGKTSTILGDITSIPELADYIKVFKPKKLTLKGYKQYWCTFKDTSISCYKSKEESSGTPAHQMNLRGCEVTPDVNISGQKFNIKLLIPVAEGMNEIWLRCDNEKQYAHWMAACRLASKGKTMADSSYNLEVQNILSFLKMQHLNPDPQLIPEQITTDITPECLVSPRYLKKYKNKQITARILEAHQNVAQMSLIEAKMRFIQAWQSLPEFGITHFIARFQGGKKEELIGIAYNRLIRMDASTGDAIKTWRFSNMKQWNVNWEIKMVTVEFADEVRLSFICTEVDCKVVHEFIGGYIFLSTRAKDQNESLDEEMFYKLTSGWV", "chain 2": "KYRRRHRKHSPQHTTTLSLSTLATPKRSGNNNGSEPSDIIIPLRTADSVFCPHYEKVSGDYGHPVYIVQEMPPQSPANIYYKV"}}}
{"variants_of": "B1", "test": "in vitro binding assay (pulldown on NeutrAvidin beads, Western blot densitometry); purified kindlin2; n = 3; read off a plot", "units": {"percent of parent": "% WT"}}
{"variant": "chain 2 S75A", "percent of parent": "~105"}
{"variant": "chain 2 N78A", "percent of parent": "~107"}
{"variant": "chain 2 Y81A", "percent of parent": "~61"}
{"variant": "chain 2 N78A, chain 2 I79A, chain 2 Y80A, chain 2 Y81A", "percent of parent": "~14"}
{"variant": "chain 2 N78A, chain 2 Y81A", "percent of parent": "~36"}
